The values that follow come from IntAct's records for PubMed 29892012.

B1: Coiled-coil alpha-helical rod protein 1 (Homo sapiens), Q8TD31 (parent)
chain: MFPPSGSTGLIPPSHFQARPLSTLPRMAPTWLSDIPLVQPPGHQDVSERRLDTQRPQVTMWERDVSSDRQEPGRRGRSWGLEGSQALSQQAEVIVRQLQELRRLEEEVRLLRETSLQQKMRLEAQAMELEALARAEKAGRAEAEGLRAALAGAEVVRKNLEEGSQRELEEVQRLHQEQLSSLTQAHEEALSSLTSKAEGLEKSLSSLETRRAGEAKELAEAQREAELLRKQLSKTQEDLEAQVTLVENLRKYVGEQVPSEVHSQTWELERQKLLETMQHLQEDRDSLHATAELLQVRVQSLTHILALQEEELTRKVQPSDSLEPEFTRKCQSLLNRWREKVFALMVQLKAQELEHSDSVKQLKGQVASLQEKVTSQSQEQAILQRSLQDKAAEVEVERMGAKGLQLELSRAQEARRRWQQQTASAEEQLRLVVNAVSSSQIWLETTMAKVEGAAAQLPSLNNRLSYAVRKVHTIRGLIARKLALAQLRQESCPLPPPVTDVSLELQQLREERNRLDAELQLSARLIQQEVGRAREQGEAERQQLSKVAQQLEQELQQTQESLASLGLQLEVARQGQQESTEEAASLRQELTQQQELYGQALQEKVAEVETRLREQLSDTERRLNEARREHAKAVVSLRQIQRRAAQEKERSQELRRLQEEARKEEGQRLARRLQELERDKNLMLATLQQEGLLSRYKQQRLLTVLPSLLDKKKSVVSSPRPPECSASAPVAAAVPTRESIKGSLSVLLDDLQDLSEAISKEEAVCQGDNLDRCSSSNPQMSS
partner: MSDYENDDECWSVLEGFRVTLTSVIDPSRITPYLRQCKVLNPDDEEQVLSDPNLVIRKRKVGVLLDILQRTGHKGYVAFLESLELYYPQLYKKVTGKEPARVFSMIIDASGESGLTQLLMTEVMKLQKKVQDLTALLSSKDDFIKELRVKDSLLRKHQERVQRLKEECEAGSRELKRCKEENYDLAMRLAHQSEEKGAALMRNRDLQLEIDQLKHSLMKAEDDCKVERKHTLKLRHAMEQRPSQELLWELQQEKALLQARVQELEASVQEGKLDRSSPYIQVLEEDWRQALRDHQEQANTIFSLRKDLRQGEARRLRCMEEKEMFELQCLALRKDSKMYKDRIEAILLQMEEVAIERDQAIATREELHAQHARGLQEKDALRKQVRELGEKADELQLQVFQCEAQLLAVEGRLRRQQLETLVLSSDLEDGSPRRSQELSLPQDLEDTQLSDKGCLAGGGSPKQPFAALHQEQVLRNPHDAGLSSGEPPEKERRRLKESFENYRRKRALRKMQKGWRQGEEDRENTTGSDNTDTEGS
B2: Coiled-coil alpha-helical rod protein 1 (Homo sapiens), Q8TD31 (parent)
chain: B1 chain
partner: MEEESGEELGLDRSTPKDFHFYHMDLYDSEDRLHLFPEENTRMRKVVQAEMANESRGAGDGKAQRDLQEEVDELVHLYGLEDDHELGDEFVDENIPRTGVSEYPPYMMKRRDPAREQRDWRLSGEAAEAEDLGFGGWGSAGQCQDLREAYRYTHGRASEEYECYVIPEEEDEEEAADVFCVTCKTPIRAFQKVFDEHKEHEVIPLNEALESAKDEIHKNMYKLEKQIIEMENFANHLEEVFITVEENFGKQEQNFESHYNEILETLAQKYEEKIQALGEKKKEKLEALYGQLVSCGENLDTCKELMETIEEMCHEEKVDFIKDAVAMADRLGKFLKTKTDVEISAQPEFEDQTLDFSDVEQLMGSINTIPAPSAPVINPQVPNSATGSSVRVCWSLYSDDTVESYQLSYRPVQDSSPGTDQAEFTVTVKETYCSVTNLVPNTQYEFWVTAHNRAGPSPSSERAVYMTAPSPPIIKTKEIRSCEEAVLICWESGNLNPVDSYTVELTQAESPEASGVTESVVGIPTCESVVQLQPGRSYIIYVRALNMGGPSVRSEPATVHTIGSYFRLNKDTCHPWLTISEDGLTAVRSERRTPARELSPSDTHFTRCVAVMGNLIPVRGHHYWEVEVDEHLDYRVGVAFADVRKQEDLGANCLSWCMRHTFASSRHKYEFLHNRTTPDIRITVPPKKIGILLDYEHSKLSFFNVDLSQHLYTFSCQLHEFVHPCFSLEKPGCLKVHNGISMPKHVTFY
B3: Coiled-coil alpha-helical rod protein 1 (Homo sapiens), Q8TD31 (parent)
chain: B1 chain
partner: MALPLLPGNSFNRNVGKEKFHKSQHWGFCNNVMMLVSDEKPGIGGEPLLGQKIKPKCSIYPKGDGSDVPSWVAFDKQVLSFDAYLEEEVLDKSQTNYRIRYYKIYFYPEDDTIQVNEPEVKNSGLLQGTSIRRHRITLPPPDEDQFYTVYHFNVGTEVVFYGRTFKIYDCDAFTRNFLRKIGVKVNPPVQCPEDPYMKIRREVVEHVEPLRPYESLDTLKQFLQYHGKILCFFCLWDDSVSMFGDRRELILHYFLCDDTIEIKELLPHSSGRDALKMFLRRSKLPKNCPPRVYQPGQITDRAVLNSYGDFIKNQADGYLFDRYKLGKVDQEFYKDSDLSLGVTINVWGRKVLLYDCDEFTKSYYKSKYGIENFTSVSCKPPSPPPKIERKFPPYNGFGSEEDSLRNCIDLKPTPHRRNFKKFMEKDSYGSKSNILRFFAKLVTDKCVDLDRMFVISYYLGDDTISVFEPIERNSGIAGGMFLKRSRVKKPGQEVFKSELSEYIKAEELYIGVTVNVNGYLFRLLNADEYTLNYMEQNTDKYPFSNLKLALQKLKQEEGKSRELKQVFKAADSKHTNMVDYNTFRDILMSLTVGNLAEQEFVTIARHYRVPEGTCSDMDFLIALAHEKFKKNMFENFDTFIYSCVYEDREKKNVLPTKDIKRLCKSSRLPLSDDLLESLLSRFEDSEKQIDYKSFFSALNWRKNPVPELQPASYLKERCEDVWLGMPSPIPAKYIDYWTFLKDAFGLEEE
B4: Coiled-coil alpha-helical rod protein 1 (Homo sapiens), Q8TD31 (parent)
chain: B1 chain
partner: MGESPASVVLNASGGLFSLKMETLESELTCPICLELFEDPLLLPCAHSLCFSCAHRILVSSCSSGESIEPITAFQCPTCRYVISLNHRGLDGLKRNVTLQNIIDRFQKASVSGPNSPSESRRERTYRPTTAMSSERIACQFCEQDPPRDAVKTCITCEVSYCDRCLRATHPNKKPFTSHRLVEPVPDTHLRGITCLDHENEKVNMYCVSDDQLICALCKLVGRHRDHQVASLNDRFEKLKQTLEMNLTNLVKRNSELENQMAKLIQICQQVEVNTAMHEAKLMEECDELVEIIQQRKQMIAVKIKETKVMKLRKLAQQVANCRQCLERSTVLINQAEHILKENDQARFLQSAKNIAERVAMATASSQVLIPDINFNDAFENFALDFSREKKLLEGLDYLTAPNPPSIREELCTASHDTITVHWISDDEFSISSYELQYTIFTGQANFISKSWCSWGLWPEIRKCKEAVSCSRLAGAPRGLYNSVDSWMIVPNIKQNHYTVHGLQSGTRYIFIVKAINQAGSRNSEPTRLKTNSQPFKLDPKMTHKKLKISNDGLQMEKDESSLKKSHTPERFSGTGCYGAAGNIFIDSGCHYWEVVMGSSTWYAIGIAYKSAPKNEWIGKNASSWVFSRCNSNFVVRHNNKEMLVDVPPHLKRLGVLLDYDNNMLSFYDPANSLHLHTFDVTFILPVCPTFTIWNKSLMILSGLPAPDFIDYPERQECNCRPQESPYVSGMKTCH
B5: Coiled-coil alpha-helical rod protein 1 (Homo sapiens), Q8TD31 (parent)
chain: B1 chain
partner: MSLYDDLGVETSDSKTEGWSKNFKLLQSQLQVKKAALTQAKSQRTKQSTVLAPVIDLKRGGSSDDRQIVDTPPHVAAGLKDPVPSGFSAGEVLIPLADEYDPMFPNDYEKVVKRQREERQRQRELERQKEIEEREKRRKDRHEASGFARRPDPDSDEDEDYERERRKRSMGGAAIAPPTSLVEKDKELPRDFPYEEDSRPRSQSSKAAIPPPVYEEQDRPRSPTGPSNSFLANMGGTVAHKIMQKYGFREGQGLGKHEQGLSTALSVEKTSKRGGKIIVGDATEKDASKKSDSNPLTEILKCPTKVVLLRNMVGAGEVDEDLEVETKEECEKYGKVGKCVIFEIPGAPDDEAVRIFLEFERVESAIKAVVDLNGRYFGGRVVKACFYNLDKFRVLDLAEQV
B6: Coiled-coil alpha-helical rod protein 1 (Homo sapiens), Q8TD31 (parent)
chain: B1 chain
partner: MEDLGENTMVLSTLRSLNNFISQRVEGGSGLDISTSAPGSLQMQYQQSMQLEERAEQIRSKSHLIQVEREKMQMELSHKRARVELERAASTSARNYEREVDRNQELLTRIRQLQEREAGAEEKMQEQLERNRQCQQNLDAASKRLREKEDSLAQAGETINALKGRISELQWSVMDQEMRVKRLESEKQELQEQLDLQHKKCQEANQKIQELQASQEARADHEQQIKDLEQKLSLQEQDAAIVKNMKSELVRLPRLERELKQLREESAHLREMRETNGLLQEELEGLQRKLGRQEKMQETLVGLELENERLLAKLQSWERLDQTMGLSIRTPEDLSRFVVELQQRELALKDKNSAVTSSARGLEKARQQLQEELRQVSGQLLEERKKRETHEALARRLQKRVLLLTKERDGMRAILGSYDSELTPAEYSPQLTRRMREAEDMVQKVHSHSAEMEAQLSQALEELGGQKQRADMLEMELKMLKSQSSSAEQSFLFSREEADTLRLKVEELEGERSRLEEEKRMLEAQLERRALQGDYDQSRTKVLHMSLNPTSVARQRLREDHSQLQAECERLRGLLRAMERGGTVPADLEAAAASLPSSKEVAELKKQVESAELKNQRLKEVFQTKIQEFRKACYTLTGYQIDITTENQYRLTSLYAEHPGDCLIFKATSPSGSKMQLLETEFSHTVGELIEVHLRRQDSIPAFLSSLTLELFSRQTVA
B7: Coiled-coil alpha-helical rod protein 1 (Homo sapiens), Q8TD31 (parent)
chain: B1 chain
partner: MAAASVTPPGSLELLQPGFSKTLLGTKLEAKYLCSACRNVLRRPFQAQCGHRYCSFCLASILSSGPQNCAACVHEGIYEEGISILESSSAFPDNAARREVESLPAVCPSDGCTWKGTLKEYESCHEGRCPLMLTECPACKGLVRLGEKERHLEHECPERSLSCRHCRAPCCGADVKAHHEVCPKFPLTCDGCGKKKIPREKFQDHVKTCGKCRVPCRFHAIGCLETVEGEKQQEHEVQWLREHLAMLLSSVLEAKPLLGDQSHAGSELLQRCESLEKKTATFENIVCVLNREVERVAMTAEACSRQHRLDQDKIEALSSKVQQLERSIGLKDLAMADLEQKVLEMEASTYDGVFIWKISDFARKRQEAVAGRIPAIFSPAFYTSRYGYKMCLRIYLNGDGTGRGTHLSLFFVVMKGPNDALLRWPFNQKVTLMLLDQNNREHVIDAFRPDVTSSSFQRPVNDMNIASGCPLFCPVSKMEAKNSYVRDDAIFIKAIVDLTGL
B8: Coiled-coil alpha-helical rod protein 1 (Homo sapiens), Q8TD31 (parent)
chain: B1 chain
partner: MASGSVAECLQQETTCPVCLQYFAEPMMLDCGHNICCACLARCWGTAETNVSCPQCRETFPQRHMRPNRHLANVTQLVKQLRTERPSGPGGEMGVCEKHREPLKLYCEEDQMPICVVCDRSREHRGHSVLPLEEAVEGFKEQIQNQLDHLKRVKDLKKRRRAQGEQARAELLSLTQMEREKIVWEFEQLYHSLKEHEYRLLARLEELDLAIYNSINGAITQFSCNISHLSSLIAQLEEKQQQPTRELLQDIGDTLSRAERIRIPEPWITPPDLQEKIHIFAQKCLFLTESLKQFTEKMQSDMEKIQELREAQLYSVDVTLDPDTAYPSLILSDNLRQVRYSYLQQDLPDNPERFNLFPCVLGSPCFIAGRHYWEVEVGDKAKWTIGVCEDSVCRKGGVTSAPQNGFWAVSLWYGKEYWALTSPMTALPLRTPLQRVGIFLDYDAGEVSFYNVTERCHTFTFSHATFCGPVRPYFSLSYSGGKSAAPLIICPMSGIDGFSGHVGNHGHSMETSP

One assay covers variants of B1. The note with it: with card9_human CARD9, Q9H257.
As for W337R, the “effect of a mutation on the interaction” value is reported as “disrupting interaction strength”.

The variants in another assay derive from B2. The conditions noted are these: with fsd2_human FSD2, A1L4K1.
As to W337R, the “effect of a mutation on the interaction” value is listed as “with no effect”.

Another assay covers variants of B3. The conditions noted are these: with efhc2_human EFHC2, Q5JST6.
In the case of W337R, the “effect of a mutation on the interaction” value is listed as “disrupting interaction strength”.

The variants in another assay derive from B4. The note with it: with trim1_human MID2, Q9UJV3.
W337R: the “effect of a mutation on the interaction” value was “disrupting interaction strength”.

A further assay covers variants of B5. The conditions noted are these: with spf45_human RBM17, Q96I25.
On to W337R, for which the “effect of a mutation on the interaction” value is “disrupting interaction strength”.

Variants of B6 are the subject of the next assay. The conditions noted are these: with md1l1_human MAD1L1, Q9Y6D9.
On to W337R, for which the “effect of a mutation on the interaction” value was “disrupting interaction strength”.

In the next assay the parent is B7. The conditions noted are these: with traf2_human TRAF2, Q12933.
For the variant W337R, the “effect of a mutation on the interaction” value is “disrupting interaction strength”.

Variants of B8 are the subject of a further assay. The note with it: with tri27_human TRIM27, P14373.
Consider W337R, for which the “effect of a mutation on the interaction” value is “disrupting interaction strength”.
